Reference: patent CN112239498A

Key:
[1] = biological target: 1aE2C、1bE2C、2aE2C、3aE2C、4aE2C、5aE2C、6aE2C; experiment: ELISA, coated E2C of seven subtypes
[2] = biological target: 1bE2C (Hepatitis C virus, subtype 1b); experiment: ELISA, coated 1bE2C, anti-human IgG-HRP detection

B1: 抗体HNC-5 (antibody, V domains shown)
VH: QVQLVQSGAEVKKPGSSVKVSCKVSGVTFKGYAISWVRQAPGQGLEWMGSVIPIFGAANYAQQFQGRVTITADESTSTAYMELRSLKFDDTAVYYCGRGDQLLWGITAFHYWGQGTLVTVSS
VL: EIVLTQSPGTLPLSPGEGATLSCRASHIVTSNNLAWYQQKPGQAPRLLIYGASNRATGIPDRFSGSGSGTDFTLTISRLEPEDFAMYYCQQYGSSPGTFGQGTKLEIK
Question: Which EC50 [1] does the source give for B1 here?
Answer: 0.00216 to 0.0226 mg/L

Question: What about the EC50 [2] of the same binder?
Answer: 0.016 mg/L
